# Source: article PMC5641120, “Small-molecule inhibitors of PD-1/PD-L1 immune checkpoint alleviate the PD-L1-induced exhaustion of T-cells” (Oncotarget, 2017)
# System: PD-1/sPD-L1
# Assay: PD-1/sPD-L1 effector assay (anti-CD3 activated ECs, luciferase)
# Assay type: cell-based, human
# Conditions: anti-CD3 with sPD-L1 (wt or mutein), 24 h, luciferase reporter
# Procedure: To evaluate the potential of BMS compounds in abrogating the inhibitory effect of sPD-L1 on the activation of T cells, sPD-L1 was pre-incubated with tested compounds and presented to ECs together with the anti-CD3-activating antibody.
# For the evaluation of the BMS impact on T cell inhibition by soluble PD-L1, the ECs were stimulated with the anti-CD3 antibody in the presence of the recombinant human sPD-L1. For this, the 96-well white flat bottom plates were coated overnight at 4°C with 5 μg/ml of the anti-CD3 antibody or the isotype control solution in PBS. […] Then, 15 μl of the solution was added to each well of the antibody-coated plate. ECs were centrifuged and diluted to 50 000 per ml, and 60 μl of the cell solution was added to each well. The final concentration of sPD-L1 was 10 μg/ml (0.6 μM). The final concentrations of the BMS compounds were: 0.12, 0.3, 1.2 and 3 μM, giving the following BMS:sPD-L1 molar ratios: 1:5, 1:2, 2:1 and 5:1. The cells were cultured for 24 h and the luciferase activity assay was performed using the Bio-Glo Luciferase Assay System (Promega) according to the manufacturer's instructions.
molecule,measurement,value
"sPD-L1: recombinant human soluble PD-L1 (residues 18–134, C-terminal His-tag) (protein, NTA-Atto 647 N fluorescent dye on the His-tag (flow cytometry only); uniform 15N labelling (NMR titration with compounds only); left off: His-tag, C-terminal, kept) AFTVTVPKDLYVVEYGSNMTIECKFPVEKQLDLAALIVYWEMEDKNIIQFVHGEEDLKVQHSSYRQRARLLKDQLSLGNAALQITDVKLQDAGVYRCMISYGGADYKRITVKVNAPY",effect of soluble PD-L1 protein on anti-CD3 mediated activation of ECs,decreased reporter expression to about half
